How the values were obtained:
[1] = target: tA27-WT (aa 21–84, C71A/C72A, extra N-terminal tryptophan) (vaccinia virus (Western Reserve strain)) (UniProt P11258); test: SEC-MALS
[2] = target: tA27-WT (aa 21–84, C71A/C72A, extra N-terminal tryptophan) (vaccinia virus (Western Reserve strain)) (UniProt P11258); test: AUC
[3] = target: the molecule itself; test: non-reducing SDS-PAGE with immunoblot (disulfide-linked complexes)

Molecule “tA27-WT (aa 21–84, C71A/C72A, extra N-terminal tryptophan) (from UniProt P11258 21-84) (domain or fragment)” has a stoichiometry N [1] of 2 and a stoichiometry N [2] of 2.

B1: Vaccinia virus A27 protein, full length wild type (natural protein)
chain: MDGTLFPGDDDLAIPATEFFSTKAAKKPEAKREAIVKADEDDNEETLKQRLTNLEKKITNVTTKFEQIEKCCKRNDEVLFRLENHAETLRAAMISLAKKIDVQTGRRPYE
With B1 the “stoichiometry N” value [3] was 2.

Source: article PMC3749956 (PLoS Pathogens, 2013)
